The record followed here is paper PMC4678846.

Substrate in the data set: CC(C)(C)OC(=O)NCCCC[C@H](N)C(=O)O
Kind of data set: purified protein. The settings on record: wild-type tRNA^Pyl, 10 mM ATP, 10 mM MgCl2, pH 7.2, 37 °C, apparent, amino acid not given, BocK inferred.

B1: MbPylRS (Methanosarcina barkeri str. Fusaro) (protein)
chain: MDKKPLDVLISATGLWMSRTGTLHKIKHYEVSRSKIYIEMACGDHLVVNNSRSCRTARAFRHHKYRKTCKRCRVSDEDINNFLTRSTEGKTSVKVKVVSAPKVKKAMPKSVSRAPKPLENPVSAKASTDTSRSVPSPAKSTPNSPVPTSAPAPSLTRSQLDRVEALLSPEDKISLNIAKPFRELESELVTRRKNDFQRLYTNDREDYLGKLERDITKFFVDRDFLEIKSPILIPAEYVERMGINNDTELSKQIFRVDKNLCLRPMLAPTLYNYLRKLDRILPDPIKIFEVGPCYRKESDGKEHLEEFTMVNFCQMGSGCTRENLESLIKEFLDYLEIDFEIVGDSCMVYGDTLDIMHGDLELSSAVVGPVPLDREWGIDKPWIGAGFGLERLLKVMHGFKNIKRASRSESYYNGISTNL
Take B1: the Km came out at 1030 ± 50 µM.

The Km is the substrate concentration at which the rate is half of its maximum.
